A short description of series [1]: DMAPP assay of site evaluation library (SEL) lysates with ELISA protein quantitation: specific activity ranked as performance index. Format: biochemical. As to conditions: for isoprene synthase activity of variants relative to parent, in words: SEL analysis of P. alba IspS; for performance index: primary SEL screen, activity on DMAPP per unit weight relative to the parental molecule (parent = 1). Here is the method: 1. Prepared Patch Plates from Glycerol Stock Plates. Using a V&S 96 pin Replication Tool, cultures were patched onto a LB Agar 35 CMP/50 Kan large patch plates from overnight glycerol stock plates. Plates were incubated at 30° C. overnight for 20 to 24 hr. Cultures can be stored at 4° C. for up to a week.
2. Prepared Overnight Growth Plates. 500 mL of LB 35 CMP/50 Kan media were prepared. 300 μL/well of LB 35 CMP/50 Kan media were dispensed into deep 96 well plates (VWR). Using a V&S Replication Tool, the patch inoculum was transferred into deep 96 well plate by touching the tool pins to respective patch and using a circular motion to coat the pins with inoculum. The media was inoculated by dipping the tool then shaking the pin within the well. The overnight growth plates were sealed using a Breathe-Easier Sealing Membrane (Diversified Biotech). The plates were incubated in a Vertiga Shaking Incubator at 30° C. with shaking at 800 rpm overnight for 16 to 18 hr.
3. Prepared Day Growth Plate. Deep 96 well plates were prepared by dispensing 588 μL/well of LB 35 CMP/50 Kan media. Overnight growth plates were removed from the incubator. Overnight cultures were diluted 50-fold and 12 μL of overnight culture were transferred to day growth plates containing 588 μL/well of LB media containing antiobiotics. Overnight growth plates were sealed with new Breathe-Easier Sealing Membranes. Cultures were incubated at 30° C. and 800 rpm for 2.5 hr. Frozen 12 mM IPTG (Sigma) vials were removed from −20° C. and placed in a hood to thaw.
4. OD600 Plate Read of Overnight, Induction, and Harvest. 150 μL 1×PBS were dispensed into 96 well Costar Read Plates (#9017). 50 μL of culture samples were transferred to Read Plates. The OD600 reading was recorded using a Spectramax Plate Reader (Molecular Devices).
5. Induction. Electronic multi-channel pipettors were prepared to dispense 4×20 μL/well of IPTG (if 4× replicates). The multi-dispense option in the electronic pipettor was adjusted if more replicates was necessary. Thawed 12 mM IPTG was poured into 50 mL or 100 mL sterile reservoirs. 20 μL/well of IPTG into each 600 μL/well culture. Overnight growth plates were resealed. Cultures were incubated at 30° C. and 800 rpm for 4 hr. OD600 readings of plates were recorded according instructions above.
6. Harvest. 400 μL of induced culture were transferred to 800 μL Grenier storage plates. Plates were centrifuged at 3300 rpm for 20 min at 2° to 8° C. in a low speed benchtop centrifuge. Supernatants were discarded, pellets should stay in the conical bottom well. Residual supernatants were slapped out onto a paper towel on the benchtop. Plates were sealed with an aluminum foil membrane (Beckman-Coulter). Plates were covered with a plastic plate lid if available. Storage plates were labeled accordingly and stored frozen at −80° C.
Plates containing induced cell pellets were removed from the −80° C. freezer and allowed to thaw on the benchtop for 30 minutes prior to lysis. 200 μl of lysis buffer (50 mM Tris pH 8, 25 mM MgCl2, 74 μg/ml DNase I, 250 U/ml lysozyme, 0.1% Tween 20, 0.5 mM PMSF) was added to each pellet, and plates were incubated on an Eppendorf Thermomixer at 25° C. for 30 minutes at 1200 rpm. After lysis, plates were centrifuged at 3450 rpm for 15 minutes at 4° C. Supernatants were then removed and diluted 10-fold prior to DMAPP assay. 80 μl of the diluted supernatant was added to 20 μl of the DMAPP working stock (20 mM DMAPP in 0.1 M Phosphate Buffer pH 8.2, DMAPP triammonium salt, Cayman chemicals) in a Zinsser glass block. Blocks were then sealed with aluminum sealing membranes, and incubated in Thermomixers at 25° C. for 30 minutes at 450 rpm. Reactions were stopped by incubating blocks on Thermomixers at 70° C. for 12 minutes at 450 rpm. GC-MS was then used for headspace measurements to calculate the amount of isoprene produced by each lysates.
Headspace Assay. […]

Series [2] is described as follows: Differential scanning calorimetry, thermal midpoint (Tm). The class given is physicochemical. Here is the method: Excessive heat capacity curves were measured using an ultrasensitive scanning high-throughput microcalorimeter, VP-Cap DSC (MicroCal, Inc., Northampton, Mass.). The standard procedure for Differential Scanning calorimetry (DSC) measurements and the theory of the technique is previously published (Freire, E. (1995) Differential Scanning calorimetry Methods. Mol. Biol. 41, 191-218). Approximately 500 μL of 0.5 mg/ml IspS (from strain MD09-167) or variant IspS-L494P (from strain DW399) and IspS-T536F (from strain DW363) (in the absence or presence of 5 mM sodium pyrophosphate) were scanned over a 30-100° C. temperature range. The same sample was then re-scanned to check the reversibility of the process. For IspS the thermal unfolding process was irreversible. The buffer used was 50 mM HEPES, 5 mM MgCl2, pH 7.4, with and without 5 mM sodium pyrophosphate. Sodium pyrophosphate was included for its ability to function as a substrate analog. A 200° C./hr scan rate was used to minimize any artifacts that may result from aggregation. The thermal midpoint (Tm) of the DSC curves was used as an indicator of the thermal stability. The thermal melting curves and the melting points for the wild type IspS and variants are shown in FIG. 56 (buffer only) and 57 (with 5 mM sodium pyrophosphate).
A general note: In DSC, transitions show as peaks or steps in heat flow.

[3] abbreviates: buffer alone (50 mM HEPES, 5 mM MgCl2, pH 7.4).
The mark [4] stands for this setting: in the presence of 5 mM sodium pyrophosphate.

“Also recorded” adds a separate entry of the source.

B1: L494P: P. alba IspS variant L494P; pDW101, strain DW399, SEQ ID NO: 69 (protein)
chain: MEARRSANYEPNSWDYDYLLSSDTDESIEVYKDKAKKLEAEVRREINNEKAEFLTLLELIDNVQRLGLGYRFESDIRGALDRFVSSGGFDAVTKTSLHGTALSFRLLRQHGFEVSQEAFSGFKDQNGNFLENLKEDIKAILSLYEASFLALEGENILDEAKVFAISHLKELSEEKIGKELAEQVNHALELPLHRRTQRLEAVWSIEAYRKKEDANQVLLELAILDYNMIQSVYQRDLRETSRWWRRVGLATKLHFARDRLIESFYWAVGVAFEPQYSDCRNSVAKMFSFVTIIDDIYDVYGTLDELELFTDAVERWDVNAINDLPDYMKLCFLALYNTINEIAYDNLKDKGENILPYLTKAWADLCNAFLQEAKWLYNKSTPTFDDYFGNAWKSSSGPLQLVFAYFAVVQNIKKEEIENLQKYHDTISRPSHIFRLCNDLASASAEIARGETANSVSCYMRTKGISEELATESVMNLIDETWKKMNKEKLGGSPFAKPFVETAINLARQSHCTYHNGDAHTSPDELTRKRVLSVITEPILPFERENLYFQGLEHHHHHH
For B1, in series [1], the “isoprene synthase activity of variants relative to parent, in words” value is reported as “improved activity; also recorded: high performing” and the performance index was 2.64. Also, the “increase in the Tm vs wild type” value in series [2] (buffer alone) was determined as 2.1 °C. The “thermal melting point (Tm)” value in series [2] (setting [3]) stood at 60.4 °C. In series [2] (setting [4]), the “increase in the Tm vs wild type” value stood at 2.3 °C and the “thermal melting point (Tm)” value was determined as 57.0 °C.

B2: T536F: P. alba IspS variant T536F; pDW87, strain DW363, SEQ ID NO: 95 (protein)
chain: MEARRSANYEPNSWDYDYLLSSDTDESIEVYKDKAKKLEAEVRREINNEKAEFLTLLELIDNVQRLGLGYRFESDIRGALDRFVSSGGFDAVTKTSLHGTALSFRLLRQHGFEVSQEAFSGFKDQNGNFLENLKEDIKAILSLYEASFLALEGENILDEAKVFAISHLKELSEEKIGKELAEQVNHALELPLHRRTQRLEAVWSIEAYRKKEDANQVLLELAILDYNMIQSVYQRDLRETSRWWRRVGLATKLHFARDRLIESFYWAVGVAFEPQYSDCRNSVAKMFSFVTIIDDIYDVYGTLDELELFTDAVERWDVNAINDLPDYMKLCFLALYNTINEIAYDNLKDKGENILPYLTKAWADLCNAFLQEAKWLYNKSTPTFDDYFGNAWKSSSGPLQLVFAYFAVVQNIKKEEIENLQKYHDTISRPSHIFRLCNDLASASAEIARGETANSVSCYMRTKGISEELATESVMNLIDETWKKMNKEKLGGSLFAKPFVETAINLARQSHCTYHNGDAHTSPDELTRKRVLSVIFEPILPFERENLYFQGLEHHHHHH
For B2, in series [1], the “isoprene synthase activity of variants relative to parent, in words” value was “improved isoprene synthase activity; also recorded: high performing”. For the same molecule, the performance index in series [1] turned out to be 3.60. Moreover, the entries for the “increase in the Tm vs wild type” value in series [2] (buffer alone) and in series [2] (setting [4]) were 3.8 °C and 4.7 °C, respectively. The “thermal melting point (Tm)” value in series [2] (setting [3]) worked out at 62.1 °C; in series [2] (setting [4]) it was 59.4 °C.

The values above are taken from patent US9175313B2, “Three-dimensional structure of isoprene synthase and its use thereof for generating variants” (Danisco US Inc., priority 2009, dated 2015).
